This passage reports protein stability index results from the supplement of paper PMC10724198.

± gives the standard deviation of the averaged measurements.
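Also: PSI is a weighted mean of sequencing reads over stability bins, variants kept only with over 10 reads, mCherry proximal and sfGFP distal, peptide attached via GGGS linker.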

In this data set the test system is Saccharomyces cerevisiae. In words: protein stability index of tFT-peptide fusion (C-terminal peptide) (PSI (0-1 scale)); higher = more stable (slower turnover). Conditions: genetic background: wild type; temperature: 30 C.
The sequence KVYTALWLLAGN gave a protein stability index of 0.698 ± 0.028.
The figure for KWETAAGSSDGP is 0.6993 ± 0.0032.
The figure for KWNITKEQENSR is 0.681 ± 0.018; for KWQRIKNSPNRK it is 0.749 ± 0.059; for KYNKSRRGKIKT it is 0.697 ± 0.062.
The figure for LAALVGGNRGRG is 0.704 ± 0.081; for LAAVAAGDVGGG it is 0.674 ± 0.035.
Turning to LALTFRLQAPLA, the protein stability index was 0.695 ± 0.017.
To LANAGLVLPRIP belongs 0.679 ± 0.0071; to LAPPIRPCPPSP, 0.681 ± 0.056; to LAPTNAPYPHPM, 0.658 ± 0.015.
In the case of LASCVTRTMAWD, the protein stability index worked out at 0.664 ± 0.071.
The figure for LASREFGVFCIW is 0.648 ± 0.057.
To LATGCVGVRGHE belongs 0.719 ± 0.023; to LAVILLVLPGND, 0.563 ± 0.011.
The figure for LAWFDLAPSTLP is 0.827 ± 0.14.
For the sequence LAWYPGYCYCCL, the protein stability index is 0.598 ± 0.0089.
To LAYAPLNGDVPY belongs 0.68 ± 0.01; to LCAETGVGPGLW, 0.724 ± 0.016.
The figure for LCGFLPSFHLLY is 0.679 ± 0.0088; for LCHESFDGTFVN it is 0.72 ± 0.022.
The figure for LCLCGLLGSGPT is 0.736 ± 0.042; for LCLFGGLVAFWC it is 0.585 ± 0.027.
For LCPALLFLLARS, the protein stability index turned out to be 0.5141 ± 0.0033.
The figure for LCPDFSLQWSFD is 0.759 ± 0.019.
For LCPPLPPSPPRS, the protein stability index amounted to 0.70073 ± 0.00018.
To LCQWLIEFTVLF belongs 0.515 ± 0.025; to LCSPSPPCPRLP, 0.748 ± 0.025.
In turn, LDEQKLKLPPVK gave a protein stability index of 0.736 ± 0.024.
To LDFLLSMVHGKK belongs 0.702 ± 0.022; to LDGLNLVRVVGV, 0.674 ± 0.044; to LDINWVGGAPEV, 0.727 ± 0.042.
The figure for LDKLLFIFNCGC is 0.66 ± 0.044; for LDRGPFADQAPH it is 0.678 ± 0.012; for LEGNRGYKRNGK it is 0.637 ± 0.084.
The figure for LELTTIRHNHEL is 0.695 ± 0.029; for LERSTCYPREPM it is 0.69 ± 0.1; for LESLPSPLHLPM it is 0.629 ± 0.026.
The sequence LETIFEDFGKYR gave a protein stability index of 0.794 ± 0.092.
To LFAGPPTGPNAR belongs 0.802 ± 0.12; to LFANGSGSSTSR, 0.715 ± 0.031.
To LFCARNGILLSV belongs 0.516 ± 0.0084; to LFCSSHRMQTKL, 0.746 ± 0.029; to LFFLLCHVGSFR, 0.516 ± 0.0085.
To LFGFFLECCFCT belongs 0.599 ± 0.052; to LFGGCRLVGSVV, 0.711 ± 0.023.
For LFGLCLAGFCVP, the protein stability index is 0.625 ± 0.046.
To LFIVSFSPGFPF belongs 0.635 ± 0.11; to LFLELSSCVGVF, 0.62 ± 0.024.
To LFLFPVCFTNDL belongs 0.661 ± 0.025; to LFLFSSAGYPNS, 0.661 ± 0.1; to LFLLALFPPPAS, 0.738 ± 0.013.
To LFLSFFLPSYNT belongs 0.66 ± 0.026; to LFLTFYSPLSFT, 0.646 ± 0.022.
LFPCFSFPFSFL gave a protein stability index of 0.587 ± 0.055.
To LFPHPGPHHPSV belongs 0.716 ± 0.016; to LFPPAFSAFLPF, 0.725 ± 0.024.
In turn, LFPPTPRPLPLP returned a protein stability index of 0.654 ± 0.023.
To LFRRVASILPRD belongs 0.668 ± 0.013; to LFSCVFFLCLNF, 0.512 ± 0.0074.
The figure for LFTDIQAPSVKH is 0.788 ± 0.18; for LFVLSLHLPCFG it is 0.498 ± 0.02.
The figure for LFVSPRPFRSVL is 0.7495 ± 0.0063; for LFWFSRVVCMSF it is 0.564 ± 0.048; for LFYFDTWFFPPP it is 0.762 ± 0.097.
Sequence LFYVNIPTQFVR displayed a protein stability index of 0.564 ± 0.014.
To LGCLVGVRFLGF belongs 0.642 ± 0.032; to LGDGAVVAEESG, 0.642 ± 0.062.
The figure for LGDLVFGLSVWL is 0.684 ± 0.035; for LGFLLSLVCLLG it is 0.532 ± 0.015; for LGGEVDLGPARG it is 0.662 ± 0.092.
To LGGTRRVGLALV belongs 0.685 ± 0.057; to LGGWWVSRVGEP, 0.732 ± 0.037.
Turning to LGKGRYNIKINK, the protein stability index was 0.695 ± 0.016.
LGLPSSLGPSDF gave a protein stability index of 0.682 ± 0.011.
To LGLRSGQGPVTL belongs 0.7746 ± 0.00092; to LGLRSRIYMLVD, 0.664 ± 0.0083; to LGLSTVKLEVPW, 0.7731 ± 0.0016.
The figure for LGMGWGSGLERW is 0.826 ± 0.12.
The figure for LGPRVGDPDGRF is 0.742 ± 0.019; for LGPSPQRLRYPT it is 0.65 ± 0.035.
With LGSILSSSSSRL, the protein stability index was determined as 0.699 ± 0.018.
To LGSSQVGLVRRV belongs 0.663 ± 0.011; to LGSVLSLVRFGR, 0.677 ± 0.016.
The figure for LGVSVVEPGRVR is 0.702 ± 0.04; for LGVVCVGWLGGL it is 0.664 ± 0.03.
The figure for LGWDGSRRRPGL is 0.727 ± 0.14; for LHAGHSNSVLAF it is 0.601 ± 0.0075.
On to LHCKDWGHESRD, for which the protein stability index was found to be 0.6838 ± 0.0057.
LHHLASPSPPTP had a protein stability index of 0.797 ± 0.015.
To LHMVSCFLCSLW belongs 0.564 ± 0.018; to LHPPTHPQLPSS, 0.7214 ± 0.0059.
Regarding LHRRIPFPTQAL, the protein stability index came out at 0.567 ± 0.017.
The figure for LHSIPLNPYLIA is 0.712 ± 0.16.
To LHSRKSDFSVIA belongs 0.656 ± 0.046.
The figure for LIDYGLDVSLSL is 0.703 ± 0.015; for LIFPPLPPLPPR it is 0.754 ± 0.01.
On to LIISDVTGFSHL, for which the protein stability index was 0.6576 ± 0.0029.
As for LIKKSFYMKIIK, the protein stability index was determined as 0.59 ± 0.057.
The figure for LIPAASLSPLAC is 0.562 ± 0.013; for LIPIRGESTFRF it is 0.779 ± 0.11.
The figure for LIPLPPPPLPPP is 0.623 ± 0.09; for LIPTIRRKHRAT it is 0.625 ± 0.014.
The figure for LIRVSPDVNITA is 0.622 ± 0.066; for LIYKRQPAFRCG it is 0.632 ± 0.023.
Sequence LKAACAKRGVLS gave a protein stability index of 0.679 ± 0.085.
The figure for LKFRETHIRNHP is 0.701 ± 0.05; for LKPMSRKSLRSM it is 0.715 ± 0.022; for LKRPDVTKKKSI it is 0.62 ± 0.077.
The figure for LLAVLSPAAPLP is 0.696 ± 0.058; for LLCFRLFPALTP it is 0.6228 ± 0.0057.
To LLCHAGRTPRPP belongs 0.646 ± 0.013.
LLCPSPPSDIPP had a protein stability index of 0.661 ± 0.016.
To LLDGASALIFGG belongs 0.617 ± 0.057; to LLDSLCEKTFRS, 0.677 ± 0.032; to LLESTAHGKGIR, 0.683 ± 0.022.
